Results from patent US7635583B2, “Protein crystal comprising the processivity clamp factor of DNA polymerase and a ligand, and its uses” (Centre National de la Recherche Scientifique, priority 2003, dated 2009).

Key:
Pol IV DNA polymerase = target: T1, Pol IV DNA polymerase (Escherichia coli, UniProt Q47155); assay: intrinsic (β-independent) activity of Pol IV, primer extension on β free primer/template; type: biochemical; settings: peptide 1, 10, 25 μM, Pol IV 1.5 nM
T1 sequence (Q47155 1-351): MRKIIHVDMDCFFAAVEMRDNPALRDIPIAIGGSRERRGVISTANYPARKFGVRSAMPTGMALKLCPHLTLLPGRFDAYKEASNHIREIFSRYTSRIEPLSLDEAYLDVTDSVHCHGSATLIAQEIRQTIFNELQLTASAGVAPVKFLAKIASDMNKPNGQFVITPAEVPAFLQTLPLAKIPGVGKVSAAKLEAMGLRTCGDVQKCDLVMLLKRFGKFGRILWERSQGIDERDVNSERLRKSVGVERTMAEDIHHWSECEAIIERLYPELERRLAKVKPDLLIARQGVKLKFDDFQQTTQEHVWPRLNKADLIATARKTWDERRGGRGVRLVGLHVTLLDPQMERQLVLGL
Experimental: FIG. 3A represents the migration pattern of an electrophoresis gel. β free (lanes 1-4 and 9-12) or β loaded (lanes 5-8 and 13-16) labelled primer/template hybrids are incubated with increasing amounts of control peptide (CLIP) (lanes 1-8) or P16 peptide (lanes 9-16). Concentrations of peptides are as follows: 0 μM, lanes 1, 5, 9 and 13; 1 μM, lanes 2, 6, 10 and 14; 10 μM, lanes 3, 7, 11 and 15; 25 μM, lanes 4, 8, 12 and 16. This mixture is then submitted to the enzymatic activity of Pol IV (1.5 nM) in the presence of each four dNTPs for 1 minute at room temperature. Beside the overall increase in DNA synthesis activity, the β-dependent activity of the polymerase is characterised by the apparition of synthesis products longer than 12 nucleotides (β dependent synthesis), β independent synthesis is characterised by products shorter than 12 nucleotides. […] FIG. 3B represents the quantitative analysis of the relative amounts of each β-independent (incorporation of 1 up to 12 nucleotides) and β-dependent (12 and more nucleotides incorporation) activities observed in lanes 5-8 and 13-16. Black and white rectangles represent the ratio of β-dependent to β-independent polymerase activities (vertical axis) in the presence of specified amounts of CLIP and P16 peptides (horizontal axis), respectively. […]

[1] = target: β clamp-Pol IV DNA polymerase interaction (Escherichia coli, UniProt P0A988); settings: Pol IV 1.5 nM; for effect on β-dependent Pol IV activity: peptide 1, 10, 25 μM
Experimental: FIG. 3A represents the migration pattern of an electrophoresis gel. β free (lanes 1-4 and 9-12) or β loaded (lanes 5-8 and 13-16) labelled primer/template hybrids are incubated with increasing amounts of control peptide (CLIP) (lanes 1-8) or P16 peptide (lanes 9-16). Concentrations of peptides are as follows: 0 μM, lanes 1, 5, 9 and 13; 1 μM, lanes 2, 6, 10 and 14; 10 μM, lanes 3, 7, 11 and 15; 25 μM, lanes 4, 8, 12 and 16. This mixture is then submitted to the enzymatic activity of Pol IV (1.5 nM) in the presence of each four dNTPs for 1 minute at room temperature. Beside the overall increase in DNA synthesis activity, the β-dependent activity of the polymerase is characterised by the apparition of synthesis products longer than 12 nucleotides (β dependent synthesis), β independent synthesis is characterised by products shorter than 12 nucleotides. […] FIG. 3B represents the quantitative analysis of the relative amounts of each β-independent (incorporation of 1 up to 12 nucleotides) and β-dependent (12 and more nucleotides incorporation) activities observed in lanes 5-8 and 13-16. Black and white rectangles represent the ratio of β-dependent to β-independent polymerase activities (vertical axis) in the presence of specified amounts of CLIP and P16 peptides (horizontal axis), respectively. Decrease in this ratio value actually indicates a specific inhibition of the β-dependent polymerase activity.
(§1) Briefly, P16 peptide and a control peptide (CLIP) were diluted in 20 mM NaHCO3 at concentrations of 250, 100 and 10 pmol/μl. 5′ end radiolabelling, purification and annealing of synthetic primers were performed as previously described (Wagner et al., 1999).
All replication experiments (10 μl final volume) were carried out in buffer E (40 mM HEPES pH 7.5, 80 mM potassium glutamate, 160 μg/ml BSA, 16% glycerol, 0.016% NP40, 8 mM DTT). The 30/90 nucleotide hybrid was first incubated with single strand binding proteins (SSB; Sigma; 90 nM final concentration) in the presence of ATP (200 μM) and MgCl2 (7.5 mM) at 37° C. for 10 min. […]

[2] = target: β clamp-α subunit of DNA Polymerase III interaction (Escherichia coli, UniProt P0A988); settings: peptide 1, 10, 25 μM; α subunit 6 nM
Experimental: as §1
All replication experiments (10 μl final volume) were carried out in buffer E (40 mM HEPES pH 7.5, 80 mM potassium glutamate, 160 μg/ml BSA, 16% glycerol, 0.016% NP40, 8 mM DTT). The 30/90 nucleotide hybrid was first incubated with single strand binding proteins (SSB; Sigma; 90 nM final concentration) in the presence of ATP (200 μM) and MgCl2 (7.5 mM) at 37° C. for 10 min. When specified, the γ complex (1 nM final concentration) (gift from Dr. C. S. McHenry, Denver, USA), and the β clamp (5 nM as dimer final concentration) were added at that stage, and incubation was carried out at 37° C. for 10 min. Then, 7 μl of the mixture was added to 1 μl of either 20 mM NaHCO3 or 1 μl of peptide solution (1, 10 or 25 μM final concentration), incubated 20 min. at room temperature and farther 2 hours at 4° C.

Sequence of β clamp-Pol IV DNA polymerase interaction (P0A988 whole entry): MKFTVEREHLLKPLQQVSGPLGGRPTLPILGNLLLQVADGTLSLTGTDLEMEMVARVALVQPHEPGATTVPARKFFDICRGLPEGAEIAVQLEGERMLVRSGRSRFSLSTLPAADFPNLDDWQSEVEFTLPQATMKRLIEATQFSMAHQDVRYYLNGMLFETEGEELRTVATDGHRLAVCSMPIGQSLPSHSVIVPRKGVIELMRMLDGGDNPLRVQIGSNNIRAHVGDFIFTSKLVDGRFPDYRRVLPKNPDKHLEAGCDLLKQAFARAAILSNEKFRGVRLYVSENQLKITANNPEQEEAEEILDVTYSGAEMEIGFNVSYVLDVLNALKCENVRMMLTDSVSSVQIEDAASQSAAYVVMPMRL
Sequence of β clamp-α subunit of DNA Polymerase III interaction (P0A988 whole entry): as above

RPVKVTPNGAEDESAEAFPLEF (Control peptide) [CLIP, reference compound]
effect on intrinsic activity of Pol IV (distributive incorporation of one to up to 12 nucleotides) (Pol IV DNA polymerase): neither P16 nor CLIP peptides do affect | effect on β-dependent Pol IV activity [1]: no effect

VTLLDPQMERQLVLGL (listed as Escherichia coli) [P16]
effect on intrinsic activity of Pol IV (distributive incorporation of one to up to 12 nucleotides) (Pol IV DNA polymerase): neither P16 nor CLIP peptides do affect | decrease of β-dependent Pol IV activity (factor) ([1]; highest P16 concentration tested, 25 μM, β clamp 5 nM): around 30 | effect on β-dependent Pol IV activity [1]: inhibits the β-dependent activity of Pol IV | effect on α subunit β-dependent activity [2]: dose dependent inhibition
